Results: patent US20130171174A1 (INDUSTRIAL TECHNOLOGY RESEARCH INSTITUTE, published 2013)

Biological target: T1, human epidermal growth factor receptor (EGFR) on A431 cells (human, UniProt P00533 25-1210)
T1 construct: whole, on cells; The target is presented on fixed A431 cells
Experiment: ELISA on fixed A431 cells, anti-human Fc-HRP detection, SigmaPlot fit
Protocol: A431 cells in a concentration of 4×10⁵ cell/ml were seeded in Corning CellBIND 96-well plate for 16-24 h before assay. After PBS wash, the A431 cells were fixed with BD CytoFix fixation buffer for 15-20 min at room temperature. After fixation and PBS wash procedure, the A431 cells were blocked with StartingBlock blocking buffer for 30 min at 37° C. Plates were washed three times with PBST wash buffer and incubated with the indicated concentrations of dAb-D2-hFc and VH-dAb-D2×4-Ig in 50 ul StartingBlock blocking buffer on ice for 1.5 h. Wells were washed three times with PBST wash buffer. After washing, the plate was incubated with HRP-conjugated anti-human Fc antibody diluted 1:10,000 in StartingBlock blocking buffer on ice for 1 hour. Plates were washed and incubated with TMB. Absorbance at 450 nm was read on a microplate reader.

- Kd: ~6 nM
B1: VH-dAb-D2×4-Ig tetrameric antibody (antibody, V domains shown)
V domain 1: QVQLLESGGGLVQPGGSLRLSCAASGYRFNSEAMGWVRQAPGKGLEWVSSINMRGGSTYYADSVKGRFTISRDNSKNTLYLQMNSLRAEDTAVYYCATVPRSMWWAGLTAKPIRYWGQGTLVTVSS
V domain 2: QVQLLESGGGLVQPGGSLRLSCAASGYRFNSEAMGWVRQAPGKGLEWVSSINMRGGSTYYADSVKGRFTISRDNSKNTLYLQMNSLRAEDTAVYYCATVPRSMWWAGLTAKPIRYWGQGTLVTVSS
notes: also called tetravalent antibody; tetravalent fusion protein; not shown: CH1, CH2 and CH3 of human IgG; CL of human IgG
